Assay: soluble on expression in E. coli; label from the status in PepcDB or PDB records

Sequence | soluble on expression in E. coli
VQAVAVLKGDAGVSGVVKFEQASESEPTTVSYEIAGNSPNAERGFHICEFGDATNGCVSAGPHFNPFKKTHGAPTDEVRHVGDMGNVKTDENGVAKGSFKDSLIKLIGPTSVVGRSVVIHAGQDDLGKGDTEESLKTGNAGPRPACGVIGLTN | soluble
VREVCSEQAETGPCRAMISRWYFDVTEGKCAPFFYGGCGGNRNNFDTEEYCMAVCGSA | soluble
VRPAIKVGLSTASVYPLRAEAAFEYADRLGYDGVELMVWGESVSQDIDAVRKLSRRYRVPVLSVHAPCLLISQRVWGANPILKLDRSVRAAEQLGAQTVVVHPPFRWQRRYAEGFSDQVAALEAASTVMVAVENMFPFRADRFFGAGQSRERMRKRGGGPGPAISAFAPSYDPLDGNHAHYTLDLSHTATAGTDSLDMARRMGPGLVHLHLCDGSGLPADEHLVPGRGTQPTAEVCQMLAGSGFVGHVVLEVSTSSARSANERESMLAESLQFARTHLLR | not soluble
VRPHWRDLETLRLAAQRFGDGDLSSRTRIFRRSDIRTLAQHFNQMADRIESLISNQRELTNAVSHELRTPISRLSFELEQLNKQVDAEVRHDLIEDMRADLGELEEMVSELLTYARLEHGNVGSHREIVDAASWLDSVVADVALEAEAAGVTCEISACQVEQIRIEPRFMARAVINLLRNAIRHAHSRVEIALLDQGDSCQIRVNDDGPGIPADARQKIFEPFSRLDDSRDRSTGGFGLGLAIVHRVAQWHGGYAEALETPQGGASFRLTWERPR | not soluble
VRQLSQPLKRLVVAARQFGQGRSVRLPLGPETPSEMAEVYRAFNQMAEDIEQGGRERELMLAGVSHDLRTPLTRLRLSLELLPESEREMVEDMIRDIEDMDAILDQFLAFIRDGRDEPVEEGDLTDLVREVVAPFNQTREQVRMALQPVPAMPLRRVSMKRLLGNLIDNALNHGGGSVEVASYVAGESAAPYVVLSVLDRGQGIDPAEVDSIFNPFIRGDKARGGKGTGLGLAIVKRIAAQHGGSVELRNRDGGGLEARVCLPLGLLLPRGAA | not soluble
VRSSSRTPSDMPVAHVVANPQAEGQLQWKNAGANALLANGVELRDNQLVVPSEGLYLIYSQVLFSGQGCPSTHVLLTHTISRIAVSYQTPVNLLSAIRSPCQRETPEGAEANPWYEPIYLGGVFQLEPGDRLSAEINRPDYLDFASTGQVYFGIIAL | soluble
VSKDRLYFRQLLSGRDFAVGDMFATQMRNFAYLIGDRTTGDCVVVDPAYAAGDLLDALESDDMQLSGVLVTHHHPDHVGGSMMGFQLPGLAELLERASVPVHVNTHEALWVSRVTGIPVGDLITHEHGDKVSVGDIDIELLHTPGHTPGSQCFLLDGRLVAGDTLFLEGCGRTDFPGGDSDEMYRSLRQLAELPGDPTVFPGHWYSAEPSASLSEVKRSNYVYRPASLDQWRMLMGG | not soluble
VTDHVREADDANIDDLLGDLGGTARAERAKLVEWLLEQGITPDEIRATNPPLLLATRHLVGDDGTYVSAREISENYGVDLELLQRVQRAVGLARVDDPDAVVHMRADGEAAARAQRFVELGLNPDQVVLVVRVLAEGLSHAAEAMRYTALEAIMRPGATELDIAKGSQALVSQIVPLLGPMIQDMLFMQLRHMMETEAVNAGERAAGKPLPGARQVTVAFADLVGFTQLGEVVSAEELGHLAGRLAGLARDLTAPPVWFIKTIGDAVMLVCPDPAPLLDTVLKLVEVVDTDNNFPRLRAGVASGMAVSRAGDWFGSPVNVASRVTGVARPGAVLVADSVREALGDAPEADGFQWSFAGPRRLRGIRGDVRLFRVRRGATRTGSGGAAQDDDLAGSSP | soluble
VVMHPGFGAAALTGATGAAAAAAAAPTPQASPLGGRGTGASAEPATSAHSHGGGGGFGNVVSGTPMETTVSLPPQVSSHAGGRGASGSTDSSAEASTDHKRARTNNPGAGGARAAQAAALPSLDAVTSQQAAAAAGMAPAAGTLGAVPPAYPAVAVAPAAEVNGAMPYVDALTEQLRAVRLLQPTPPSSASSAPVRASAAAMADVTENVAVKAKGKKKGAAAAAAAQPPPPPLLPPAPRTEMDRRAALSGAAGAFMAACDEAVRELLLAMNFSDHDAEAIITGAAPPQLEHAASGVVSLVLRLKSSVLSHYIKHLNNAAARSQAAAASTAAVDGNAEDAADKHGAKATSAAKAPPAAGGGAGDAADQQLSTGEACLVQLQLYGGVGDALLQLLRSKLRGSACQLWALAHIVHPHPSRSEKESLAAYTGKSTKQVTDWFTNWRARHW | not soluble
VVPGPVHTSPREVAGPVDVLILAVKATQNDAARPWLTRLCDERTVVAVLQNGVEQVEQVQPHCPSSAVVPAIVWCSAETQPQGWVRLRGEAALVVPTGPAAEQFAGLLRGAGATVDCDPDFTTAAWRKLLVNALAGFMVLSGRRSAMFRRDDVAALSRRYVAECLAVARAEGARLDDDVVDEVVRLVRSAPQDMGTSMLADRAAHRPLEWDLRNGVIVRKARAHGLATPISDVLVPLLAAASDGPG | not soluble
VYNYMVDDTRSQLSIFMDEIAAQLEVDHTGHLSLAAQLSDPRFSRPYSGLYWSASTDSSLERSRSLWDKRIEYKGLDKDAYGARDEKLITLEKALYLPDYDGPIHIIVGIDEEPIKSTLQ | not soluble
WDPPYLQIAFDNPNLEFVLSAISEIPKSDHVIIEAGTPLIKRYGTDVISKIRQVRPDAFIVADLKTLDTGNLEARMVADAAGDAIVVSALAPISTIDKLIEEAHKTGIYAVMDTLNQQDPISVLKQLKVMPDVIELHRGIDIEGTEHAWGNIGEIKKIAPKALVAVAGGVRLDKVPVALSQGADILVVGRAITNAKDVREMAEQFINSLNK | soluble
WLEPYMTSVASVKDLSKINLVEALNARLGWPLNQHLDEWLPEHYQLPTGTKKRIRYQHGHEPVLSVRMQEVFGESTSPTVALGRKRLVLELLSPAQRPLQVTSDLAAFWNGSYKDVQKEMKGRYPKHVWPDDPANHVATTKTKRQLNND | not soluble
YAEIRARLYLMTGQTNKALNELRRLCNRFPEVNEFRLKYAGTLLDSEKYDEAYEQLQLIARTDSTSGLYHFAMASYYLGTNEKEAAINEMIKVAADKDVAPEQKLPIILRFIGTDTDEEDAPKKEYNILLEKILASHPTEVDARLFYAELLEMQGDSIHAMEVCRPITEFAPKEERAWKFMLGRAVTGQNHTEVHRISEQARQYLPGVPLFYLYDAISYYIEKKGSEAKHILQEALEHIDAEKDPNGLSDIYSQLGDLAYEENKPEEAFANYEKALELNPRNVGVLNNYAYFLAKEGGDLAKAERMAAQCVKLLPDNAVSLDTYGWVFFLRENYTLAKLYIEKALGLAADNPDADVVEHHGDVLYMLGEKEKAMLEWKRAKEIGGGGSPMLDKKIEQGKYIPEKKK | not soluble
YICRLPAEEIGFPEFYPRISRSMKSIKRPNLIYPAGKGLAVHIYPDKEDVRNYYIPIEPCLFQKLDSMLEEVEKLLIDVIHDQEINTNDPEEKKKLLVKALEKTCD | not soluble
YIGSGASQPNRTDVVWMVPSWTCKNEYSIDVEKYGILQNEDQHFVGGKQFAIFYEHSFGKIPYFKAQNESDPKNGGLPQMGDLEAHLIQAEKDINETIPDENFNGIAVIDIEEFRPMWELSWGPFSVYKTESIRLTRQQHPYWSTKQIEWQAERDYEKACQKFFIETLRLGKRLRPNAKWGYYLFPKCNGDVGQKSDTDCSTLFQKFNDNLHWLWGESTALFPSIYLYPSQKQNPEYNFVNSGALITETKRIKRNYCPSCEIHVFTKIEYNPYYTPDDFYSKQNLASTLDLAIKMNANSVVIWSTSQSIGSRCGSLQTYVDNTLGPYLQLTDRNLD | not soluble
YKIDFYRNFLVPLKVGKIKKIILDLRGNGGGMVLDARTFTDRFITKDAIFGYQRFKEDNNPFSYTPWIPCMTKTTGIGIKKEIPIVILLDNNSASMSEISTLMLKSQGKHVTVVGGYSAGATAGLGDSDQFNGGIRGKVSDYLEFYMPLLAMQDATHTVIEGIGIKPDLLVDPLTEDEVREMALSPFTHIDRTLKQAIEVLSNN | not soluble
YPQVIVDHPFLYLIRNRKSGIILFMGRVMNPHH | soluble
YSQVQLPFNDLLYIETSSRSHRVVLYTEKDRMEFTATLGDILKQEPRLFQCHRSFLVNPLNIFKVDRIDRLVYFQNGTTCLVSRNKVRDIVSIVDKYQKDRKR | not soluble
